Earlier results on one substance are cited in PMC1950483.

Targets include Asp23 (UniProt position 1560, LLISWDAPAVT); Asp7 (UniProt position 1544, SDVPRDLEVVA); Glu9 (UniProt position 1546, VPRDLEVVAAT).
Assay in all cases: NMR
Common to all, as to conditions: folded FNfn10 in solution

By pKa is commonly meant the negative logarithm of the acid dissociation constant. In the case of “Fibronectin, tenth type III domain (FNfn10) (Homo sapiens)”, the figures for the pKa in the data set with Asp23, with Asp7 and with Glu9 were 5.40, 5.54 and 5.25, respectively.
